Reference: PMC10201431, “SirA inhibits the essential DnaA:DnaD interaction to block helicase recruitment during Bacillus subtilis sporulation” (Nucleic Acids Research, 2022)
Numbering of substitutions follows the chain as printed. Numbers in names are those of the source. One block for each molecule: values may come before it.

Columns and labels:
[1] = biological target: DnaD^L22A, purified recombinant (B. subtilis) (UniProt P39787); experiment: SEC-MALS; 20°C; 40 mM Tris-HCl pH 8, 500 mM NaCl, 1 mM EDTA, 20 mM imidazole, 2.5% glycerol; 100 μl injected
[2] = biological target: the molecule itself; experiment: cross-linking; BS3, 250 nM protein, 500x molar excess BS3, 6 min at 20°C, 20 mM HEPES pH 7.2, 100 mM NaCl, 10 mM magnesium acetate; SDS-PAGE and anti-DnaD immunoblot
[3] = biological target: the molecule itself; experiment: SEC-MALS; 20°C; 40 mM Tris-HCl pH 8, 500 mM NaCl, 1 mM EDTA, 20 mM imidazole, 2.5% glycerol; 100 μl injected

percent present as monomer [1]: > 50%
stoichiometry N [1]: 4
Molecule: DnaD^L22A, purified recombinant (from UniProt P39787 1-232) (natural protein)

B1: DnaD^F6A, purified recombinant (natural protein, B. subtilis, UniProt P39787 1-232, looked up)
chain: MKKQQAIDMQEQGTSTIPNLLLTHYKQLGLNETELILLLKIKMHLEKGSYFPTPNQLQEGMSISVEECTNRLRMFIQKGFLFIEECEDQNGIKFEKYSLQPLWGKLYEYIQLAQNQTQERKAEGEQKSLYTIFEEEFARPLSPLECETLAIWQDQDQHDAQLIKHALKEAVLSGKLSFRYIDRILFEWKKNGLKTVEQAKIHSQKFRRVQAKQNEPQKEYKRQVPFYNWLEQ
notes: DnaD, B. subtilis 168CA, with F6A; made from pSF17 by Quickchange; source: E. coli BL21(DE3)-pLysS, purified (HisTrap, SUMO protease digestion, reverse HisTrap)
stoichiometry N [2]: 2

B2: DnaD, wild type, purified recombinant (natural protein, B. subtilis, UniProt P39787 1-232, looked up)
chain: B1 chain with A6F
notes: DnaD, B. subtilis 168CA; dnaD amplified from genomic DNA and cloned into pSF17; The printed theoretical mass of the tetramer (110 kDa) fits the whole protein; also called Wild-type DnaD; source: E. coli BL21(DE3)-pLysS, purified (HisTrap, SUMO protease digestion, reverse HisTrap)
stoichiometry N [3]: 4

B3: DnaD^K3A, purified recombinant (natural protein, B. subtilis, UniProt P39787 1-232, looked up)
chain: B1 chain with K3A, A6F
notes: DnaD, B. subtilis 168CA, with K3A; made from pSF17 by Quickchange; source: E. coli BL21(DE3)-pLysS, purified (HisTrap, SUMO protease digestion, reverse HisTrap)
stoichiometry N [2]: 2
